Data as given in PMC4310740.

What was measured:
[1] = target: Alexa 594-labeled N-WASP VCA (S430C) (UniProt O00401); experiment: fluorescence polarisation
[2] = target: G-actin (rabbit muscle actin monomers) (rabbit) (UniProt P68135); experiment: fluorescence polarisation

Alexa 594-labeled N-WASP VCA (S430C), sequence (O00401 whole entry S430C): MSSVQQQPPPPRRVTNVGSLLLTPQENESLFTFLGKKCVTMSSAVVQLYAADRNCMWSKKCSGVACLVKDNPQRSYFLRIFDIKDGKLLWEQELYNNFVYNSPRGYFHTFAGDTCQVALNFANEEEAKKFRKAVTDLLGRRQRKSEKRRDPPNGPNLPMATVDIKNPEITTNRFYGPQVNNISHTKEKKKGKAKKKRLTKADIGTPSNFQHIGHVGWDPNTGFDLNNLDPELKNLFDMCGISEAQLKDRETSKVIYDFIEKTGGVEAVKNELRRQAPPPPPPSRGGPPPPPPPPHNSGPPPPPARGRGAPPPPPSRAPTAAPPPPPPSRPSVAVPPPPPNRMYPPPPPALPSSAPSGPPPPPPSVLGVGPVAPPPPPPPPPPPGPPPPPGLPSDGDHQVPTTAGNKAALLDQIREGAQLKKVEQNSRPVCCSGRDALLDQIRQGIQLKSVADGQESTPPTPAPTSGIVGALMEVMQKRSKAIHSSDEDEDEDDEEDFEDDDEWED

| Kd [1] [nM] | fold reduction of affinity against wild-type WAVE1 GST-VCA [2] [fold] | Substance |
| --- | --- | --- |
| 106 | – | G-actin (rabbit muscle actin monomers) (from UniProt P68135 1-377) (natural protein) |
| – | < 2 | human WAVE1 GST-VCA K507Q (from UniProt Q92558 1-559) (domain or fragment) |
